For one molecule, Kd results are on record in article doi:10.1101/2020.02.05.923433 (bioRxiv, 2020).

This test has as its target T1, purified RASSF1 RA domain (human, UniProt Q9NS23-2 124-288).
T1 sequence: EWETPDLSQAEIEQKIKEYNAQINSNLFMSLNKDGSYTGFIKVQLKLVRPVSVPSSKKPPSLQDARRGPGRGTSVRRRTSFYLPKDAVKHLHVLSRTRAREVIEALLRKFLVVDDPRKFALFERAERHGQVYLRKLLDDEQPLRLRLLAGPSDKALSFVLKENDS
Put plainly: ITC. In general terms: In ITC the heat of successive injections is recorded.

B1: GEM-GDP (purified GEM used for ITC) (domain or fragment)
chain: STDSVISSESGNTYYRVVLIGEQGVGKSTLANIFAGVHDSMDSDCEVLGEDTYERTLMVDGESATIILLDMWENKGENEWLHDHCMQVGDAYLIVYSITDRASFEKASELRIQLRRARQTEDIPIILVGNKSDLVRCREVSV
As a reminder, the Kd is the equilibrium constant for the complex coming apart. Take B1: the Kd was 9.6 µM.
